Target: Recombinant His-PGAM1 (human, UniProt P18669 1-254)
Test: BLI

Chain of Recombinant His-PGAM1 (P18669 whole entry): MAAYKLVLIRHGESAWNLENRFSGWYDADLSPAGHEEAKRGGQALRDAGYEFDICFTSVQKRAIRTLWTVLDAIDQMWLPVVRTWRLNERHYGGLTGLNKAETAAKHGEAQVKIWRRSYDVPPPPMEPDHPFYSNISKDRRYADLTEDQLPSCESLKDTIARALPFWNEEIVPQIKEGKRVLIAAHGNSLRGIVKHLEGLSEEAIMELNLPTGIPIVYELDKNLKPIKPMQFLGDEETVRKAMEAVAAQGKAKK

Kd: 2240 nM
B1: Recombinant GST-PKM2 (enzyme)
chain: not shown
